# Source: paper PMC7581431
# B1: Nkd1-BirA* [murine] / VANGL2 [human (endogenous in Flp-In-T-REx-293)] (parent)
# chain 1: MGKLHSKPAAVCKRRESPEGDSFAVSAAWARKGIEEWIGRQRCPGSVSGPRQLRLAGTVGRGTRELVGDTSREALGEEDEDDFPLEVALPPEKIDSLGSGDEKRMERLSEPGQASKKQLKFEELQCDVSVEEDSRQEWTFTLYDFDNNGKVTREDITSLLHTIYEVVDSSVNHSPTSSKTLRVKLTVAPDGSQSKRSVLFNHTDLQSTRPRADTKPAEELRGWEKKQRAPLRFQGDSHLEQPDCYHHCVDENIERRNHYLDLAGIENYTSQFGPGSPSVAQKSELPPRISNPTRSRSHEPEAAHIPHRRPQGVDPGSFHLLDTPFAKASELQQRLRGTQDGSKHFVRSPKAQGKNMGMGHGARGARSKPPLVPTTHTVSPSAHLATSPALLPTLAPLGHKKHKHRAKESQASCRGLQGPLAAGGSTVMGREQVRELPAVVVYESQAGQAVQRHEHHHHHEHHHHYHHFYQP
# chain 2: MDTESQYSGYSYKSGHSRSSRKHRDRRDRHRSKSRDGGRGDKSVTIQAPGEPLLDNESTRGDERDDNWGETTTVVTGTSEHSISHDDLTRIAKDMEDSVPLDCSRHLGVAAGATLALLSFLTPLAFLLLPPLLWREELEPCGTACEGLFISVAFKLLILLLGSWALFFRRPKASLPRVFVLRALLMVLVFLLVVSYWLFYGVRILDARERSYQGVVQFAVSLVDALLFVHYLAVVLLELRQLQPQFTLKVVRSTDGASRFYNVGHLSIQRVAVWILEKYYHDFPVYNPALLNLPKSVLAKKVSGFKVYSLGEENSTNNSTGQSRAVIAAAARRRDNSHNEYYYEEAEHERRVRKRRARLVVAVEEAFTHIKRLQEEEQKNPREVMDPREAAQAIFASMARAMQKYLRTTKQQPYHTMESILQHLEFCITHDMTPKAFLERYLAAGPTIQYHKERWLAKQWTLVSEEPVTNGLKDGIVFLLKRQDFSLVVSTKKVPFFKLSEEFVDPKSHKFVMRLQSETSV
# B2: Nkd1-BirA* [murine] / VANGL1 [human (endogenous in Flp-In-T-REx-293)] (parent)
# chain 1: B1 chain 1
# chain 2: MDTESTYSGYSYYSSHSKKSHRQGERTRERHKSPRNKDGRGSEKSVTIQPPTGEPLLGNDSTRTEEVQDDNWGETTTAITGTSEHSISQEDIARISKDMEDSVGLDCKRYLGLTVASFLGLLVFLTPIAFILLPPILWRDELEPCGTICEGLFISMAFKLLILLIGTWALFFRKRRADMPRVFVFRALLLVLIFLFVVSYWLFYGVRILDSRDRNYQGIVQYAVSLVDALLFIHYLAIVLLELRQLQPMFTLQVVRSTDGESRFYSLGHLSIQRAALVVLENYYKDFTIYNPNLLTASKFRAAKHMAGLKVYNVDGPSNNATGQSRAMIAAAARRRDSSHNELYYEEAEHERRVKKRKARLVVAVEEAFIHIQRLQAEEQQKAPGEVMDPREAAQAIFPSMARALQKYLRITRQQNYHSMESILQHLAFCITNGMTPKAFLERYLSAGPTLQYDKDRWLSTQWRLVSDEAVTNGLRDGIVFVLKCLDFSLVVNVKKIPFIILSEEFIDPKSHKFVLRLQSETSV
# B3: Nkd1-BirA* [murine] / DVL3 [human (endogenous in Flp-In-T-REx-293)] (parent)
# chain 1: B1 chain 1
# chain 2: MGETKIIYHLDGQETPYLVKLPLPAERVTLADFKGVLQRPSYKFFFKSMDDDFGVVKEEISDDNAKLPCFNGRVVSWLVSAEGSHPDPAPFCADNPSELPPPMERTGGIGDSRPPSFHPHAGGGSQENLDNDTETDSLVSAQRERPRRRDGPEHATRLNGTAKGERRREPGGYDSSSTLMSSELETTSFFDSDEDDSTSRFSSSTEQSSASRLMRRHKRRRRKQKVSRIERSSSFSSITDSTMSLNIITVTLNMEKYNFLGISIVGQSNERGDGGIYIGSIMKGGAVAADGRIEPGDMLLQVNEINFENMSNDDAVRVLREIVHKPGPITLTVAKCWDPSPRGCFTLPRSEPIRPIDPAAWVSHTAAMTGTFPAYGMSPSLSTITSTSSSITSSIPDTERLDDFHLSIHSDMAAIVKAMASPESGLEVRDRMWLKITIPNAFIGSDVVDWLYHNVEGFTDRREARKYASNLLKAGFIRHTVNKITFSEQCYYIFGDLCGNMANLSLHDHDGSSGASDQDTLAPLPHPGAAPWPMAFPYQYPPPPHPYNPHPGFPELGYSYGGGSASSQHSEGSRSSGSNRSGSDRRKEKDPKAGDSKSGGSGSESDHTTRSSLRGPRERAPSERSGPAASEHSHRSHHSLASSLRSHHTHPSYGPPGVPPLYGPPMLMMPPPPAAMGPPGAPPGRDLASVPPELTASRQSFRMAMGNPSEFFVDVM
# Variants of: B1
# Test: BioID proximity labeling (mass spectrometry)
# Settings: with VANGL2 [human (endogenous in Flp-In-T-REx-293)]; +Wnt3a
row,response (unweighted spectral counts),Variant
1,3,chain 1 MAKLHSKPAAVCKRRESPEGDSFAVSAAWARKGIEEWIGRQRCPGSVSGPRQLRLAGTVGRGTRELVGDTSREALGEEDEDDFPLEVALPPEKIDSLGSGDEKRMERLSEPGQASKKQLKFEELQCDVSVEEDSRQEWTFTLYDFDNNGKVTREDITSLLHTIYEVVDSSVNHSPTSSKTLRVKLTVAPDGSQSKRSVLFNHTDLQSTRPRADTKPAEELRGWEKKQRAPLRFQGDSHLEQPDCYHHCVDENIERRNHYLDLAGIENYTSQFGPGSPSVAQKSELPPRISNPTRSRSHEPEAAHIPHRRPQGVDPGSFHLLDTPFAKASELQQRLRGTQDGSKHFVRSPKAQGKNMGMGHGARGARSKPPLVPTTHTVSPSAHLATSPALLPTLAPLGHKKHKHRAKESQASCRGLQGPLAAGGSTVMGREQVRELPAVVVYESQAGQAVQRHEHHHHHEHHHHYHHFYQP [chain 1 G2A]

# Variants of: B2
# Test: BioID proximity labeling (mass spectrometry)
# Settings: with VANGL1 [human (endogenous in Flp-In-T-REx-293)]; +Wnt3a
row,response (unweighted spectral counts),Variant
1,7,chain 1 MAKLHSKPAAVCKRRESPEGDSFAVSAAWARKGIEEWIGRQRCPGSVSGPRQLRLAGTVGRGTRELVGDTSREALGEEDEDDFPLEVALPPEKIDSLGSGDEKRMERLSEPGQASKKQLKFEELQCDVSVEEDSRQEWTFTLYDFDNNGKVTREDITSLLHTIYEVVDSSVNHSPTSSKTLRVKLTVAPDGSQSKRSVLFNHTDLQSTRPRADTKPAEELRGWEKKQRAPLRFQGDSHLEQPDCYHHCVDENIERRNHYLDLAGIENYTSQFGPGSPSVAQKSELPPRISNPTRSRSHEPEAAHIPHRRPQGVDPGSFHLLDTPFAKASELQQRLRGTQDGSKHFVRSPKAQGKNMGMGHGARGARSKPPLVPTTHTVSPSAHLATSPALLPTLAPLGHKKHKHRAKESQASCRGLQGPLAAGGSTVMGREQVRELPAVVVYESQAGQAVQRHEHHHHHEHHHHYHHFYQP [chain 1 G2A]

# Variants of: B3
# Test: BioID proximity labeling (mass spectrometry)
# Settings: with DVL3 [human (endogenous in Flp-In-T-REx-293)]; +Wnt3a
row,response (unweighted spectral counts),Variant
1,240,chain 1 MAKLHSKPAAVCKRRESPEGDSFAVSAAWARKGIEEWIGRQRCPGSVSGPRQLRLAGTVGRGTRELVGDTSREALGEEDEDDFPLEVALPPEKIDSLGSGDEKRMERLSEPGQASKKQLKFEELQCDVSVEEDSRQEWTFTLYDFDNNGKVTREDITSLLHTIYEVVDSSVNHSPTSSKTLRVKLTVAPDGSQSKRSVLFNHTDLQSTRPRADTKPAEELRGWEKKQRAPLRFQGDSHLEQPDCYHHCVDENIERRNHYLDLAGIENYTSQFGPGSPSVAQKSELPPRISNPTRSRSHEPEAAHIPHRRPQGVDPGSFHLLDTPFAKASELQQRLRGTQDGSKHFVRSPKAQGKNMGMGHGARGARSKPPLVPTTHTVSPSAHLATSPALLPTLAPLGHKKHKHRAKESQASCRGLQGPLAAGGSTVMGREQVRELPAVVVYESQAGQAVQRHEHHHHHEHHHHYHHFYQP [chain 1 G2A]
